Reference: patent US20170022268A1 (published 2017)
Where no end group is shown, it is not given here. [ ]: non-standard residue; d: D form. pGlu = O=C1CC[C@@H](C(=O)O)N1

T1: pyroglutamated human Aβ3-11 with the addition of a C-terminal cysteine residue, pE-FRHDSGYE-C (not fully specified)
T1 peptide: [pGlu]FRHDSGYEC

B1: monoclonal antibody 5C9 (antibody, V domains shown)
VH: QIQLQQSGPELVKPGAAVKISCKASGYTFTDYYLNWVKQKPGQGLEWIGWIYPGSGNVKYNEKFKGKATLTADTSSNTAHMQLSSLTSEDTAVYFCTREGLIVYWGQGTLVTVSA
VL: DVVLTQTPFTLSVTIGQPASISCKSSQSLLHSNGESYLNWLFQRPGQSPKRLIYAVSKLDSGVPDRFTGSGSGTDFTLKISRVEAEDLGVYYCVQGTHFPFTFGGGTKLEIK
B2: monoclonal antibody 2E8 (antibody, V domains shown)
VH: QIQLQQSGPDLVKPGASVKISCKASGYTFTDYYINWVKQKPGQGLEWIGWLNPGSGNTKYNEKFKGKATMTVDTTSSTVYMQLSSLTSEDSAVYFCTREGPIDYWGRGTSVTVSS
VL: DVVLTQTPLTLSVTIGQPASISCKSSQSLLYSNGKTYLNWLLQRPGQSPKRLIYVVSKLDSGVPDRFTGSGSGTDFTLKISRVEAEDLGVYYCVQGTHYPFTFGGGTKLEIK

Legend:
[1] = target: T1, pyroglutamated human Aβ3-11 with the …; assay: Biacore SPR; KD1 (first binding step)
[2] = target: T1, pyroglutamated human Aβ3-11 with the …; assay: Biacore SPR; overall KD

| Binder | Kd [1] | Kd [2] |
| --- | --- | --- |
| B1 | 0.116 nM | 8.2 nM |
| B2 | 3.46 nM | 64 nM |
